The text below walks through data of patent WO2012175740A1.

The target of the assay is cyno IgE c(epsilon)2-c(epsilon)3-c(epsilon)4 Fc fragment with C-terminal (His)10 tag (cynomolgus monkey). Kind of assay: Alphascreen, competition with HuFc(epsilon)RI(alpha)Fc for cyno IgE Fc.
Chain of cyno IgE c(epsilon)2-c(epsilon)3-c(epsilon)4 Fc fragment with C-terminal (His)10 tag (cynomolgus monkey) (chain, as listed by the source): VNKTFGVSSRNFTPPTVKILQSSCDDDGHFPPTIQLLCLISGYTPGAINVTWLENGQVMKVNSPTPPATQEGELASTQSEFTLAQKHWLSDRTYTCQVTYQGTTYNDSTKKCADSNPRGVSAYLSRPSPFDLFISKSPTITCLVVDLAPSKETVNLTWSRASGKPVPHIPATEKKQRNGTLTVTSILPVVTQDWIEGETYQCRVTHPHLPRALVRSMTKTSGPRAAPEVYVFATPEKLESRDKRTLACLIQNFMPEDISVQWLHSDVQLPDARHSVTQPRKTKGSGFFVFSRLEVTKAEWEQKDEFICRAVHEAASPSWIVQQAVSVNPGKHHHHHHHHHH

B1: Nanobody 39B2 (VHH, not shown: small tags and cut ends)
VHH: EVQLVESGGGLVQPGGSLRLSCAASGFTFGSYDMSWVRQAPGKGPEWVSAINSGGGSTYYADSVKGRFTISRDNAKNTLYLQMNSLKPEDTAVYYCSTDLGPWIEGTMEEYEYEYWGQGTQVTVSS
Consider B1, for which the % inhibition (in general, the percentage by which the read-out fell short of the control) at 250 nM Nanobody came to 38%.
